Experimental data published in the Human Domainome abundance scans (Beltran et al. 2025).
± gives the uncertainty stated by the source.

B1: FERM and PDZ domain-containing protein 4, residues 75 to 154; numbered along this chain, Q14CM0 (parent)
chain: APRKVEMRRDPVLGFGFVAGSEKPVVVRSVTPGGPSEGKLIPGDQIVMINDEPVSAAPRERVIDLVRSCKESILLTVIQP

Variants of: B1
Test: abundance fitness (aPCA) (normalised: wild type 0, dead -1); higher = more abundant; growth selection in yeast, the domain comes from the species named
Conditions: Homo sapiens

Variant | abundance fitness
G43L | -0.284 ± 0.024
G43V | -0.991 ± 0.04
G43P | -0.958 ± 0.051
G43F | -0.256 ± 0.038
G43H | -0.204 ± 0.043
G43I | -1.03 ± 0.14
G43R | -0.248 ± 0.021
G43E | -0.18 ± 0.027
G43T | -0.424 ± 0.031
G43D | -0.108 ± 0.035
G43C | -0.252 ± 0.034
G43Q | -0.227 ± 0.03
G43S | -0.262 ± 0.025
G43N | -0.131 ± 0.041
G43W | -0.402 ± 0.026
G43Y | -0.246 ± 0.044
G43M | -0.175 ± 0.028
D51Q | -0.027 ± 0.028
D51M | -0.077 ± 0.03
D51S | -0.039 ± 0.024
D51P | -0.821 ± 0.051
D51L | -0.168 ± 0.024
D51W | -0.234 ± 0.026
D51K | -0.044 ± 0.035

Variant | abundance fitness
D51R | -0.069 ± 0.021
D51C | -0.135 ± 0.034
D51N | -0.047 ± 0.035
D51T | -0.079 ± 0.028
D51A | -0.087 ± 0.024
D51E | -0.016 ± 0.028
D51V | -0.385 ± 0.025
D51I | -0.511 ± 0.057
D51F | -0.194 ± 0.044
D51Y | -0.145 ± 0.044
D51H | 0.01 ± 0.043
Q45F | -0.247 ± 0.03
Q45P | -0.938 ± 0.051
Q45V | -0.123 ± 0.024
Q45K | -0.057 ± 0.028
Q45H | -0.009 ± 0.029
Q45T | -0.105 ± 0.023
Q45N | -0.126 ± 0.027
Q45E | -0.037 ± 0.031
Q45C | -0.101 ± 0.03
Q45S | -0.102 ± 0.022
Q45W | -0.2 ± 0.03
Q45L | -0.136 ± 0.021
Q45R | -0.026 ± 0.022

Variant | abundance fitness
Q45A | -0.084 ± 0.026
Q45D | -0.589 ± 0.041
Q45I | -0.105 ± 0.027
K39P | -0.679 ± 0.04
K39R | -0.03 ± 0.02
K39A | -0.079 ± 0.023
K39G | -0.264 ± 0.021
K39E | -0.135 ± 0.027
K39F | -0.036 ± 0.038
K39H | -0.028 ± 0.038
K39D | -0.546 ± 0.041
K39L | 0.005 ± 0.022
K39W | -0.145 ± 0.025
K39S | -0.119 ± 0.024
K39Y | -0.068 ± 0.035
K39I | 0.005 ± 0.036
K39Q | -0.032 ± 0.031
K39T | -0.201 ± 0.029
K39V | -0.06 ± 0.022
K39C | -0.036 ± 0.03
K39M | -0.045 ± 0.028
E37F | -0.103 ± 0.038
E37P | -0.985 ± 0.059
E37H | -0.09 ± 0.045

Variant | abundance fitness
E37Q | -0.034 ± 0.031
E37D | -0.028 ± 0.035
E37V | -0.057 ± 0.023
E37N | -0.106 ± 0.045
E37Y | -0.044 ± 0.041
E37K | -0.176 ± 0.033
E37I | -0.145 ± 0.046
E37C | -0.046 ± 0.033
E37T | -0.126 ± 0.029
E37G | -0.173 ± 0.021
E37M | -0.122 ± 0.032
E37L | -0.235 ± 0.026
E37R | -0.211 ± 0.022
A57F | 0.016 ± 0.038
A57D | -0.052 ± 0.034
A57C | -0.005 ± 0.03
A57E | -0.022 ± 0.028
A57G | -0.233 ± 0.021
P42N | -0.069 ± 0.043
P42S | -0.093 ± 0.026
P42R | -0.124 ± 0.021
P42I | -0.082 ± 0.038
P42A | -0.036 ± 0.024
P42E | -0.024 ± 0.025

Variant | abundance fitness
P42Q | -0.043 ± 0.029
P42G | -0.237 ± 0.022
P42K | -0.108 ± 0.03
P42Y | -0.276 ± 0.041
P42L | -0.104 ± 0.024
P42T | -0.058 ± 0.028
P42D | -0.064 ± 0.035
P42W | -0.477 ± 0.03
P42M | -0.154 ± 0.031
P42V | -0.048 ± 0.022
P42H | -0.155 ± 0.045
P53L | 0.004 ± 0.024
P53T | -0.043 ± 0.026
P53V | -0.012 ± 0.028
P53M | -0.015 ± 0.031
P53I | 0.116 ± 0.029
P53R | -0.038 ± 0.025
P53S | -0.002 ± 0.024
P53K | -0.003 ± 0.03
P53A | -0.037 ± 0.028
P53N | -0.005 ± 0.03
P53E | 0.007 ± 0.036
P53W | -0.094 ± 0.032
P53D | 0.034 ± 0.037

Variant | abundance fitness
P53Q | -0.035 ± 0.034
P53C | -0.029 ± 0.031
P53Y | -0.078 ± 0.028
P53H | -0.03 ± 0.028
P53F | -0.124 ± 0.031
P53G | -0.079 ± 0.029
M48K | -0.046 ± 0.03
M48C | -0.003 ± 0.028
M48L | -0.072 ± 0.022
M48H | -0.121 ± 0.031
M48E | -0.028 ± 0.037
M48A | 0.044 ± 0.026
M48R | -0.046 ± 0.023
M48D | -0.095 ± 0.039
M48G | -0.025 ± 0.026
M48N | -0.095 ± 0.032
M48V | -0.127 ± 0.027
M48W | -0.152 ± 0.032
M48S | 0.008 ± 0.022
M48F | -0.01 ± 0.027
M48T | -0.015 ± 0.025
M48P | -0.917 ± 0.05
M48I | -0.154 ± 0.03
M48Y | -0.083 ± 0.031

Variant | abundance fitness
S55T | -0.157 ± 0.25
S55P | -0.027 ± 0.19
S55F | -0.143 ± 0.055
G38K | -0.105 ± 0.036
G38L | -0.21 ± 0.024
G38S | -0.124 ± 0.023
G38Q | -0.099 ± 0.032
G38W | -0.274 ± 0.026
G38D | -0.061 ± 0.031
G38E | -0.155 ± 0.026
G38V | -0.526 ± 0.026
G38P | -0.54 ± 0.037
G38M | -0.185 ± 0.034
G38N | -0.078 ± 0.047
G38T | -0.137 ± 0.03
G38Y | -0.142 ± 0.038
G38I | -0.651 ± 0.064
G38H | -0.045 ± 0.041
G38C | -0.186 ± 0.03
G38F | -0.096 ± 0.041
L40A | -0.871 ± 0.039
L40S | -0.87 ± 0.037
L40G | -1.01 ± 0.034
